Results published in patent US20170240628A1 (CELLMID, published 2017).
Values belong to the binder of their own block, whether it stands above or below them.

What was measured:
[1] = target: T1, recombinant human midkine (huMK) (human, UniProt P21741 21-143); assay: ELISA, plate coated with huMK
T1 construct: also called human MK; Human MK
T1 sequence (looked up): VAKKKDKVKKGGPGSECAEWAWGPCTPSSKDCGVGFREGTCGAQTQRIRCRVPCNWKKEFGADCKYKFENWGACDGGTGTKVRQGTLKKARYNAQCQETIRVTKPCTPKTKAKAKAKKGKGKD
Method: (§1) The binding specificity and affinity of the humanised anti-MK antibodies to recombinant human MK (huMK) and murine MK (muMK) was assessed by ELISA. ELISA plates (Nunc Immuno MaxiSorp 96 well flat-bottom were coated with 100 uL of 2 ug/mL of either huMK or muMK in 2% BSA/PBS (overnight at room temperature). After washing, blocking (1 h at 37° C.), and washing again, the humanised anti-MK and chimeric antibodies described in Example 1 were analysed for binding to huMK or muMK at concentrations ranging between 3 μg/ml and 0.00004 μg/ml in 2% BSA/PBS (1 h at 37° C.). After washing, the binding of antibody was detected with goat anti-mouse IgG (Fab specific)-HRP conjugate (Sigma, Cat. No. A9917) and SigmaFast OPD substrate (Sigma, Cat. No. P9187). The reaction was stopped with 3 M HCl, absorbance read at 490 nm on a Dynex Technologies MRX TC II plate reader and the binding curves plotted. Binding affinity data for the humanised anti-MK antibodies to huMK and muMK are presented in Table 6 and Table 7 respectively, and in FIG. 3.

[2] = target: T2, recombinant murine midkine (muMK) (murine, UniProt P12025 23-140); assay: ELISA, plate coated with muMK
T2 construct: also called murine MK; Murine MK
T2 sequence (looked up): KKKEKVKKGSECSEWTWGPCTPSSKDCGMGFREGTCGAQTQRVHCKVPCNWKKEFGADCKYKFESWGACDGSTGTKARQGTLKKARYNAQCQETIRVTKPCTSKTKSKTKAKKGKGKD
Method: as §1

EC50 [1]: 0.073 nM | EC50 [2]: 0.044 nM
B2: IP14-H5L6 (antibody, V domains shown)
VH: QVQLVQSGGGLVQPGGSLRLSCAASGQSFSSYWMNWVRQAPGQGLEWIGMIHPSDSETILNQKFKDKATLTVDISKNTAYLQMNSLRAEDTAVYYCSSWSAKRGDFWGQGTLVTVSS
VL: EIVLTQSPSTLSASVGDRVNITCRASESISNNLHWYQQKPHKAPKLLIYYASQSISGVPSRFSGSGSGTEFNLTISSVQPDDFATYYCQQSNSWPLTFGQGTKVEIKR
notes: also called Hv5 Lv6

EC50 [1]: 0.073 nM | EC50 [2]: 0.051 nM
B3: IP14-H6L4 (antibody, V domains shown)
VH: QVQLVQSGGGLVKPGHSLRLSCAASGQSFSSYWMNWVRQAPGKGLEWIGMIHPSDSETILNQKFKDKATLSVDIAKNSAYLQMNSLRAEDTAVYYCSSWSAKRGDFWGQGTLVTVSS
VL: EIVLTQSPDFQSVTPKEKVNITCRASESISNNLHWYQQKPHQSPKLLIYYASQSISGVPSRFSGSGSGTDFNLTINSVEAEDAATYYCQQSNSWPLTFGGGTKLEIKR
notes: also called Hv6 Lv4

EC50 [1]: 0.058 nM | EC50 [2]: 0.071 nM
B9: IP14-H2L7 (antibody, V domains shown)
VH: QVQLVQSGAEVKKPGASVKVSCKASGQSFSSYWMNWVRQAPGQGLEWIGMIHPSDSETILNQKFKDKATLTVDISTSTAYMELSSLRSEDTAVYYCSSWSAKRGDFWGQGTLVTVSS
VL: DIVLTQSPATLSLSPGERANLSCRASESISNNLHWYQQKPHQAPRLLIYYASQSISGVPARFSGSGSGTDFNLTISSVEPEDFAVYYCQQSNSWPLTFGQGTKVEIKR
notes: also called Hv2 Lv7

EC50 [1]: 0.091 nM | EC50 [2]: 0.12 nM
B13: IP14-H3L1 (antibody, V domains shown)
VH: QVQLVQSGAEVKKPGASVKVSCKASGQSFSSYWMNWVRQAPGQGLEWMGMIHPSDSETILNQKFKDKVTMTRDTSTSTVYMELSSLRSEDTAVYYCARWSAKRGDFWGQGTLVTVSS
VL: EIVLTQSPATLSLSPGERANLSCRASESISNNLHWYQQKPHQAPRLLIKYASQSISGIPARFSGSGPGTDFNLTISSVEPEDFAVYYCQQSNSWPLTFGGGTKLEIKR
notes: also called Hv3 Lv1

EC50 [1]: 0.082 nM | EC50 [2]: 0.1 nM
B15: IP14-H3L2 (antibody, V domains shown)
VH: QVQLVQSGAEVKKPGASVKVSCKASGQSFSSYWMNWVRQAPGQGLEWMGMIHPSDSETILNQKFKDKVTMTRDTSTSTVYMELSSLRSEDTAVYYCARWSAKRGDFWGQGTLVTVSS
VL: EIVLTQSPATLSLSPGERATLSCRASESISNNLHWYQQKPGQAPRLLIKYASQSISGIPARFSGSGPGTDFTLTISSVEPEDFAVYYCQQSNSWPLTFGGGTKLEIKR
notes: also called Hv3 Lv2

EC50 [1]: 0.056 nM | EC50 [2]: 0.069 nM
B18: IP14-H2L8 (antibody, V domains shown)
VH: QVQLVQSGAEVKKPGASVKVSCKASGQSFSSYWMNWVRQAPGQGLEWIGMIHPSDSETILNQKFKDKATLTVDISTSTAYMELSSLRSEDTAVYYCSSWSAKRGDFWGQGTLVTVSS
VL: DIVLTQSPATLSLSPGERATLSCRASESISNNLHWYQQKPHQAPRLLIYYASQSISGVPARFSGSGSGTDFTLTISSVEPEDFAVYYCQQSNSWPLTFGQGTKVEIKR
notes: also called hIP14-H2L8; Hv2 Lv8

The next lines start with the binder.

B1: IP14-H5L4 (antibody, V domains shown)
VH: QVQLVQSGGGLVQPGGSLRLSCAASGQSFSSYWMNWVRQAPGQGLEWIGMIHPSDSETILNQKFKDKATLTVDISKNTAYLQMNSLRAEDTAVYYCSSWSAKRGDFWGQGTLVTVSS
VL: EIVLTQSPDFQSVTPKEKVNITCRASESISNNLHWYQQKPHQSPKLLIYYASQSISGVPSRFSGSGSGTDFNLTINSVEAEDAATYYCQQSNSWPLTFGGGTKLEIKR
notes: also called Hv5 Lv4
EC50 [1]: 0.069 nM | EC50 [2]: 0.051 nM

B4: IP14-H1L1 (antibody, V domains shown)
VH: QVQLVQSGAEVKKPGHSVKVSCKASGQSFSSYWMNWVRQAPGQGLEWIGMIHPSDSETILNQKFKDKATLTVDISTSTAYMELSSPRSEDTAVYYCSSWSAKRGDFWGQGTLVTVSS
VL: EIVLTQSPATLSLSPGERANLSCRASESISNNLHWYQQKPHQAPRLLIKYASQSISGIPARFSGSGPGTDFNLTISSVEPEDFAVYYCQQSNSWPLTFGGGTKLEIKR
notes: also called Hv1 Lv1
EC50 [1]: 0.056 nM | EC50 [2]: 0.044 nM

B5: IP14-H2L4 (antibody, V domains shown)
VH: QVQLVQSGAEVKKPGASVKVSCKASGQSFSSYWMNWVRQAPGQGLEWIGMIHPSDSETILNQKFKDKATLTVDISTSTAYMELSSLRSEDTAVYYCSSWSAKRGDFWGQGTLVTVSS
VL: EIVLTQSPDFQSVTPKEKVNITCRASESISNNLHWYQQKPHQSPKLLIYYASQSISGVPSRFSGSGSGTDFNLTINSVEAEDAATYYCQQSNSWPLTFGGGTKLEIKR
notes: also called Hv2 Lv4
EC50 [1]: 0.053 nM | EC50 [2]: 0.078 nM

B6: IP14-H2L6 (antibody, V domains shown)
VH: QVQLVQSGAEVKKPGASVKVSCKASGQSFSSYWMNWVRQAPGQGLEWIGMIHPSDSETILNQKFKDKATLTVDISTSTAYMELSSLRSEDTAVYYCSSWSAKRGDFWGQGTLVTVSS
VL: EIVLTQSPSTLSASVGDRVNITCRASESISNNLHWYQQKPHKAPKLLIYYASQSISGVPSRFSGSGSGTEFNLTISSVQPDDFATYYCQQSNSWPLTFGQGTKVEIKR
notes: also called Hv2 Lv6
EC50 [1]: 0.054 nM | EC50 [2]: 0.073 nM

B7: IP14-H1L2 (antibody, V domains shown)
VH: QVQLVQSGAEVKKPGHSVKVSCKASGQSFSSYWMNWVRQAPGQGLEWIGMIHPSDSETILNQKFKDKATLTVDISTSTAYMELSSPRSEDTAVYYCSSWSAKRGDFWGQGTLVTVSS
VL: EIVLTQSPATLSLSPGERATLSCRASESISNNLHWYQQKPGQAPRLLIKYASQSISGIPARFSGSGPGTDFTLTISSVEPEDFAVYYCQQSNSWPLTFGGGTKLEIKR
notes: also called Hv1 Lv2
EC50 [1]: 0.065 nM | EC50 [2]: 0.051 nM

B8: IP14-H2L3 (antibody, V domains shown)
VH: QVQLVQSGAEVKKPGASVKVSCKASGQSFSSYWMNWVRQAPGQGLEWIGMIHPSDSETILNQKFKDKATLTVDISTSTAYMELSSLRSEDTAVYYCSSWSAKRGDFWGQGTLVTVSS
VL: DIVLTQSPATLSLSPGERATLSCRASESISNNLHWYQQKPGQAPRLLIYYASQSISGIPARFSGSGPGTDFTLTISSLEPEDFAVYYCQQSNSWPLTFGGGTKLEIKR
notes: also called hIP14-H2L3; Hv2 Lv3
EC50 [1]: 0.068 nM | EC50 [2]: 0.081 nM

B10: IP14-H1L7 (antibody, V domains shown)
VH: QVQLVQSGAEVKKPGHSVKVSCKASGQSFSSYWMNWVRQAPGQGLEWIGMIHPSDSETILNQKFKDKATLTVDISTSTAYMELSSPRSEDTAVYYCSSWSAKRGDFWGQGTLVTVSS
VL: DIVLTQSPATLSLSPGERANLSCRASESISNNLHWYQQKPHQAPRLLIYYASQSISGVPARFSGSGSGTDFNLTISSVEPEDFAVYYCQQSNSWPLTFGQGTKVEIKR
notes: also called Hv1 Lv7
EC50 [1]: 0.043 nM | EC50 [2]: 0.081 nM

B11: IP14-H1L3 (antibody, V domains shown)
VH: QVQLVQSGAEVKKPGHSVKVSCKASGQSFSSYWMNWVRQAPGQGLEWIGMIHPSDSETILNQKFKDKATLTVDISTSTAYMELSSPRSEDTAVYYCSSWSAKRGDFWGQGTLVTVSS
VL: DIVLTQSPATLSLSPGERATLSCRASESISNNLHWYQQKPGQAPRLLIYYASQSISGIPARFSGSGPGTDFTLTISSLEPEDFAVYYCQQSNSWPLTFGGGTKLEIKR
notes: also called hIP14-H1L3; Hv1 Lv3
EC50 [1]: 0.063 nM | EC50 [2]: 0.089 nM

B12: IP14-H2L1 (antibody, V domains shown)
VH: QVQLVQSGAEVKKPGASVKVSCKASGQSFSSYWMNWVRQAPGQGLEWIGMIHPSDSETILNQKFKDKATLTVDISTSTAYMELSSLRSEDTAVYYCSSWSAKRGDFWGQGTLVTVSS
VL: EIVLTQSPATLSLSPGERANLSCRASESISNNLHWYQQKPHQAPRLLIKYASQSISGIPARFSGSGPGTDFNLTISSVEPEDFAVYYCQQSNSWPLTFGGGTKLEIKR
notes: also called Hv2 Lv1
EC50 [1]: 0.093 nM | EC50 [2]: 0.09 nM

B14: IP14-H1L6 (antibody, V domains shown)
VH: QVQLVQSGAEVKKPGHSVKVSCKASGQSFSSYWMNWVRQAPGQGLEWIGMIHPSDSETILNQKFKDKATLTVDISTSTAYMELSSPRSEDTAVYYCSSWSAKRGDFWGQGTLVTVSS
VL: EIVLTQSPSTLSASVGDRVNITCRASESISNNLHWYQQKPHKAPKLLIYYASQSISGVPSRFSGSGSGTEFNLTISSVQPDDFATYYCQQSNSWPLTFGQGTKVEIKR
notes: also called Hv1 Lv6
EC50 [1]: 0.053 nM | EC50 [2]: 0.087 nM

B16: IP14-H1L4 (antibody, V domains shown)
VH: QVQLVQSGAEVKKPGHSVKVSCKASGQSFSSYWMNWVRQAPGQGLEWIGMIHPSDSETILNQKFKDKATLTVDISTSTAYMELSSPRSEDTAVYYCSSWSAKRGDFWGQGTLVTVSS
VL: EIVLTQSPDFQSVTPKEKVNITCRASESISNNLHWYQQKPHQSPKLLIYYASQSISGVPSRFSGSGSGTDFNLTINSVEAEDAATYYCQQSNSWPLTFGGGTKLEIKR
notes: also called Hv1 Lv4
EC50 [1]: 0.05 nM | EC50 [2]: 0.081 nM

B17: IP14-H1L8 (antibody, V domains shown)
VH: QVQLVQSGAEVKKPGHSVKVSCKASGQSFSSYWMNWVRQAPGQGLEWIGMIHPSDSETILNQKFKDKATLTVDISTSTAYMELSSPRSEDTAVYYCSSWSAKRGDFWGQGTLVTVSS
VL: DIVLTQSPATLSLSPGERATLSCRASESISNNLHWYQQKPHQAPRLLIYYASQSISGVPARFSGSGSGTDFTLTISSVEPEDFAVYYCQQSNSWPLTFGQGTKVEIKR
notes: also called hIP14-H1L8; Hv1 Lv8
EC50 [1]: 0.05 nM | EC50 [2]: 0.089 nM
